{"source": "paper PMC10195141", "about": "(Acta Biochimica et Biophysica Sinica, 2023)", "key": {"M. mulatta Gal-10": {"target": "T1, M. mulatta Gal-10 (Macaca mulatta, UniProt A0AA82WNZ0)", "T1 sequence (A0AA82WNZ0 4-142)": "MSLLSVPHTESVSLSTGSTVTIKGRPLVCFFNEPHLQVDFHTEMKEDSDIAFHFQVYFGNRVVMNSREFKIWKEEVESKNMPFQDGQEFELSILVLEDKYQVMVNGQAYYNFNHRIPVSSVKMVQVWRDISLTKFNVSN", "test": "inhibition of hemagglutination of chicken erythrocytes", "type": "cell-based", "conditions": "10 mM Tris-HCl, 150 mM NaCl, pH 7.5, on ice, 60 min; carbohydrate binding site"}, "[1]": {"target": "Macaca fascicularis galectin-10 (Macaca fascicularis)", "test": "SEC"}, "[2]": {"target": "Macaca mulatta galectin-10 (Macaca mulatta)", "test": "SEC"}}}
{"compound": "OC[C@H]1O[C@@H](O[C@H]2[C@H](O)[C@@H](O)C(O)O[C@@H]2CO)[C@H](O)[C@@H](O)[C@H]1O", "note": "(stereo partly drawn) [lactose]", "values": [{"measurement": "MIC", "setting": "M. mulatta Gal-10", "value": 6.25, "unit": "mM"}]}
{"compound": "Macaca fascicularis galectin-10 (natural protein)", "values": [{"measurement": "stoichiometry N", "setting": "[1]", "value": 2}]}
{"compound": "Macaca mulatta galectin-10 (natural protein)", "values": [{"measurement": "stoichiometry N", "setting": "[2]", "value": 2}]}
